Measured values as given in publication PMC2749940, “Kissing G Domains of MnmE Monitored by X-Ray Crystallography and Pulse Electron Paramagnetic Resonance Spectroscopy” (PLoS Biology, 2009).
Substitutions are numbered along the chain they refer to. Names and notes keep the numbering of the source.

Assays:
CtMnmE = biological target: T1, CtMnmE (Chlorobaculum tepidum, UniProt Q8KAS1); test: X-ray crystal structure (soak); assay type: binding; details: 5 mM 5-F-THF in cryoprotectant; N-terminal domain dimer interface; GDP also bound
T1 construct: gene mnmE; full length, N-terminal His-tag (pET14b, E. coli BL21-DE3) cut by thrombin; homodimer
T1 sequence (Q8KAS1 1-473): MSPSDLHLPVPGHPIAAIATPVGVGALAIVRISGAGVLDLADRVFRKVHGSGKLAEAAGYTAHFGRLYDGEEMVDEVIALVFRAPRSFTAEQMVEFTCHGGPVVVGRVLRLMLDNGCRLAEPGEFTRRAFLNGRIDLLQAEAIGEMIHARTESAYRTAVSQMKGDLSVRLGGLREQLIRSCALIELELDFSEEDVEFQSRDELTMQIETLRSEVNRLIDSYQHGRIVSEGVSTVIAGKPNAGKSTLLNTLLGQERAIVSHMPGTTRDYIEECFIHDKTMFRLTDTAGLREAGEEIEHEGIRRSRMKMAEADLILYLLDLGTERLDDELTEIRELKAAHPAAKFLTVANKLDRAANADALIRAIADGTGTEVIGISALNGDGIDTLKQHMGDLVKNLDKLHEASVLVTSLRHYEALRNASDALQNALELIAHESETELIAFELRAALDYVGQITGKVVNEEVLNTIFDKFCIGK

NoMnmE = biological target: T2, NoMnmE (Nostoc sp. PCC 7120 = FACHB-418, UniProt Q8YN91); test: X-ray crystal structure; assay type: binding; details: copurified from E. coli; two sites in N-terminal domain dimer interface; GDP also bound
T2 construct: gene mnmE; full length, N-terminal His-tag (pET14b, E. coli BL21-DE3) cut by thrombin; homodimer
T2 sequence (Q8YN91 1-459): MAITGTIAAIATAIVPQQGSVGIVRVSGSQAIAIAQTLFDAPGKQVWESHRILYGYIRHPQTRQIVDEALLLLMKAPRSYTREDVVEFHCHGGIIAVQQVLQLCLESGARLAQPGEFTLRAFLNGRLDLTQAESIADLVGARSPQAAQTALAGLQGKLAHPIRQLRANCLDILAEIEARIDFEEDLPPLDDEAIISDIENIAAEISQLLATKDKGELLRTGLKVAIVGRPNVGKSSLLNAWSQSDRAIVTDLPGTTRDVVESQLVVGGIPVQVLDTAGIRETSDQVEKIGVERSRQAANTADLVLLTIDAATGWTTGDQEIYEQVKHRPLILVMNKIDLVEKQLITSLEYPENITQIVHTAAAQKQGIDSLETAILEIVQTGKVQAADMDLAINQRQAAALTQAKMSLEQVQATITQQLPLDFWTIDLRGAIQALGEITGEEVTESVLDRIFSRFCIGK

[1] = biological target: the molecule itself; test: crystal structure; full-length MnmE crystallised with K+, GDP and AlFx (only GDP found bound); hanging-drop vapour diffusion; homodimer by crystallographic symmetry
[2] = biological target: the molecule itself; test: pulse EPR (four-pulse DEER) of spin-labelled protein; 200–500 µM MTSSL-labelled protein in 100 mM KCl (or NaCl, RbCl, CsCl, NH4Cl), 50 mM Tris-HCl, 5 mM MgCl2 pH 7.4; apo, 1 mM GDP, 1 mM GppNHp or GDP-AlFx; measured at 50 K; distances between the two symmetry-related labels of the dimer

Nc1nc2c(c(=O)[nH]1)N(C=O)[C@@H](CNc1ccc(C(=O)N[C@@H](CCC(=O)O)C(=O)O)cc1)CN2 [5-F-THF, 5-formyl-tetrahydrofolate]
X-ray crystal structure (soak) (CtMnmE): in the crystal structure 5-F-THF is found in identical positions as in the NoMnmE·GDP-dimer
X-ray crystal structure (NoMnmE): two molecules of 5-formyl-tetrahydrofolate (5-F-THF) were identified in the structure of NoMnmE·GDP

B1: Chlorobium tepidum MnmE (natural protein, UniProt Q8KAS1 1-473, looked up)
chain: T1 sequence (Q8KAS1 1-473)
notes: MnmE of Chlorobium tepidum, full-length protomer, cloned into pET14b; Crystallised with GDP (grown with GDP-AlFx and K+) and with GppCp; homodimer through the N-terminal domains; also called CtMnmE; CtMnmE·GDP; source: E. coli BL21-DE3, purified (Ni-NTA, thrombin cleavage of the His-tag, gel filtration on Superdex 200); not shown: His tag, N-terminal, cleaved
binding result [1]: binds

B2: Nostoc sp. 7120 MnmE (natural protein, UniProt Q8YN91 1-459, looked up)
chain: T2 sequence (Q8YN91 1-459)
notes: MnmE of Nostoc sp; 7120, full-length protomer, cloned into pET14b; Crystallised with GDP (grown with GDP-AlFx and K+); 5-formyl-tetrahydrofolate was co-purified; also called NoMnmE; NoMnmE·GDP; source: E. coli BL21-DE3, purified (Ni-NTA, thrombin cleavage of the His-tag, gel filtration on Superdex 200); not shown: His tag, N-terminal, cleaved
binding result [1]: binds

B3: E. coli MnmE-C451S E287R1 (Glu287 mutated to Cys, MTSSL-labelled) (natural protein, UniProt P25522 1-454, looked up)
chain: MSDNDTIVAQATPPGRGGVGILRISGFKAREVAETVLGKLPKPRYADYLPFKDADGSVLDQGIALWFPGPNSFTGEDVLELQGHGGPVILDLLLKRILTIPGLRIARPGEFSERAFLNDKLDLAQAEAIADLIDASSEQAARSALNSLQGAFSARVNHLVEALTHLRIYVEAAIDFPDEEIDFLSDGKIEAQLNDVIADLDAVRAEARQGSLLREGMKVVIAGRPNAGKSSLLNALAGREAAIVTDIAGTTRDVLREHIHIDGMPLHIIDTAGLREASDEVERIGICRAWQEIEQADRVLFMVDGTTTDAVDPAEIWPEFIARLPAKLPITVVRNKADITGETLGMSEVNGHALIRLSARTGEGVDVLRNHLKQSMGFDTNMEGGFLARRRHLQALEQAAEHLQQGKAQLLGAWAGELLAEELRLAQQNLSEITGEFTSDDLLGRIFSSFSIGK
modifications: MTSSL spin label (R1 side chain) on the cysteine at 287
notes: MnmE of E. coli, full length, Cys mutant in the C451S background; also called EcMnmE E287R1; source: purified, nucleotide-free
binding result [2]: binds

B4: E. coli MnmE-C451S I105R1 (Ile105 mutated to Cys, MTSSL-labelled) (natural protein, UniProt P25522 1-454, looked up)
chain: B3 chain with I105C, C287E
modifications: MTSSL spin label (R1 side chain) on the cysteine at 105
notes: MnmE of E. coli, full length, Cys mutant in the C451S background; source: purified, nucleotide-free
binding result [2]: binds

B5: E. coli MnmE-C451S D366R1 (Asp366 mutated to Cys, MTSSL-labelled) (natural protein, UniProt P25522 1-454, looked up)
chain: B3 chain with C287E, D366C
modifications: MTSSL spin label (R1 side chain) on the cysteine at 366
notes: as for B4
binding result [2]: binds

B6: E. coli MnmE-C451S S278R1 (Ser278 mutated to Cys, MTSSL-labelled) (natural protein, UniProt P25522 1-454, looked up)
chain: B3 chain with S278C, C287E
modifications: MTSSL spin label (R1 side chain) on the cysteine at 278
notes: as for B4
binding result [2]: binds
